Source: the supplement of paper PMC9732359
± gives the uncertainty stated by the source.

experiment: protein stability index of a GFP-peptide fusion (yeast GPS) (PSI 1-4); higher = more stable; sorted into four equal gates, so the index is relative within each strain; conditions: doa10∆
In short: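 Yeast carrying a pooled library were grown to mid-log phase in leucine-free medium. Each library plasmid expresses Cherry and has a tiled 17-residue yeast protein peptide fused downstream of GFP. Cells were sorted into four equal gates by GFP/Cherry ratio, and plasmids from each gate were PCR-amplified, Illumina-sequenced and assigned to strains by barcode. Summing, across gates, the read frequency times the gate number gave each peptide's protein stability index.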

First: DLVKPKNPKFSNAFYSV [SMC4]
Second: DLWNNFGNIMDNLLEMS [RRP6]
The protein stability index of the first is lower: 2.43 ± 0.062 for the first, 3.42 ± 0.094 for the second.

Compared with DMIKCFLPKLNSVRNSL [NUT1], DMLLHKYYIVSSSKSMI [SRB8] is lower in protein stability index: 2.52 ± 0.053 for the first, 1.26 ± 0.074 for the second.

First: DMSKILVDQGFNYSGKD [RET1]
Second: DMVKLDINPPLVFILAV [RRP42]
The protein stability index of the first is higher: 3.36 ± 0.073 for the first, 2.69 ± 0.068 for the second.

Going from DNEDSDNLFGETESSVS [SWI3] to DNETKAMLINLILRDFL [RPN3], the protein stability index falls from 3.48 ± 0.14 to 2.55 ± 0.095.

First: DNLGQTKIIMATNRPDT [RPT4]
Second: DNNTASNMLGSNEDVMM [RPB3]
The protein stability index of the first is higher: 2.76 ± 0.084 for the first, 2.04 ± 0.25 for the second.

First: DNVVRFLNEARDKAGRL [RPO21]
Second: DPFSIYGFSNKEYISRL [SNF5]
The protein stability index of the first is higher: 2.48 ± 0.063 for the first, 1.89 ± 0.066 for the second.

Going from DPLLAGLGETSGDNHTQ [RPT4] to DPNNPVDFDGLDIKRVG [SNF12], the protein stability index rises from 2.77 ± 0.26 to 3.5 ± 0.087.

First: DPSRELNVIIDQLAVSP [YCS4]
Second: DPTKVTEFEFYLLEELE [SSN8]
The protein stability index of the first is lower: 2.79 ± 0.055 for the first, 3.19 ± 0.065 for the second.

DPVSGAILVPMTVNDQP [YJR042W/NUP85] and DQAELPNNASSHISASA [SNF2] are within error of each other in protein stability index: 1.95 ± 0.18 for the first, 1.79 ± 0.085 for the second.

Going from DQAIVTETKRLVVIRFG [DIB1] to DQGNGWLYVYETPNQDA [RPN6], the protein stability index rises from 2 ± 0.071 to 2.36 ± 0.061.

Going from DQKETKKGESEKDASGK [YOR098C/NUP1] to DQLLTDLIETSFTCFAQ [NUT1], the protein stability index falls from 3.45 ± 0.18 to 2.56 ± 0.093.

Compared with DQYIQKQVQISHHLKAD [YGL172W/NUP49], DRAIRKTCQWYSEHLKP [DIS3] is higher in protein stability index: 2.78 ± 0.076 for the first, 3.17 ± 0.089 for the second.

Going from DRETALDFIGRRGTALG [RPB2] to DRKDQDDRDHFGKKRLD [RPB2], the protein stability index rises from 2.23 ± 0.072 to 3.27 ± 0.14.

Compared with DRKKDKNVKHSGNIQLD [RPL12A], DRKNRAPPQRPRFNRDN [RPS26B] is lower in protein stability index: 3.31 ± 0.12 for the first, 1.87 ± 0.2 for the second.

First: DRQCMIMDELLSSIAER [DIB1]
Second: DRSKPVALTSFLGYKAG [RPL3]
The protein stability index of the first is lower: 2.7 ± 0.066 for the first, 2.85 ± 0.075 for the second.

Going from DRVIFRVPIRSEYKVAF [PRP8] to DRVKVIECFKPGDIVRA [CSL4], the protein stability index falls from 2.93 ± 0.069 to 2.66 ± 0.13.

First: DSAAIIAATGLNQINGL [GRR1]
Second: DSADVPAFSNSNGFNNV [YMR153W/NUP53]
The protein stability index of the first is lower: 2.85 ± 0.096 for the first, 3.1 ± 0.062 for the second.

DSDELGGESMEGPKKCI [SNM1] and DSDKGSKLNELKKELKL [SMC2] are within error of each other in protein stability index: 3.38 ± 0.086 for the first, 3.56 ± 0.18 for the second.

Going from DSENFSFEKLYEGMKLG [YMR129W/POM152] to DSFIFDGTAKEVGDEAD [MED4], the protein stability index falls from 3.5 ± 0.11 to 3.22 ± 0.062.

Compared with DSLISGVKQKITIQLTR [BRR2], DSNESDDDVTPSTKVAS [YLR335W/NUP2] is higher in protein stability index: 1.44 ± 0.12 for the first, 3.46 ± 0.16 for the second.

Going from DSSMTTVQENELLKSSL [AAR2] to DSSVEDSTDNENSGKEM [LIN1], the protein stability index rises from 2.79 ± 0.12 to 3.04 ± 0.041.

Compared with DSTPEEVSCKLLETITY [YML103C/NUP188], DSTVNKSITLKGRNNES [YDL088C/ASM4] is higher in protein stability index: 2.47 ± 0.077 for the first, 3.28 ± 0.09 for the second.

DTFRAGAFDQLKQNAIR [SRP54] and DTFRWVGKKSAPEKDIW [RPO31] are within error of each other in protein stability index: 2.82 ± 0.058 for the first, 2.79 ± 0.095 for the second.

DTKLRLEKSKNECQRLQ [YIL149C/MLP2] and DTLDGDLMDDMSDISDL [RPN3] are within error of each other in protein stability index: 2.57 ± 0.055 for the first, 2.71 ± 0.18 for the second.

DTLDPALLRPGRLDRKV [RPT4] and DTPTSGKHNLTIWCVCD [BRR2] are within error of each other in protein stability index: 3.02 ± 0.26 for the first, 3.05 ± 0.11 for the second.

DTQFTKLLDDNPTEFDW [SRB8] and DTSLCINGEPSIHVNRV [RRI1] are the same in protein stability index: 2.99 ± 0.089 for the first, 2.99 ± 0.081 for the second.

DVDMEDRNLTEFDSTDT [RRI1] and DVEDDDKETQLKKRAVS [POP7] are within error of each other in protein stability index: 2.93 ± 0.12 for the first, 2.85 ± 0.18 for the second.

First: DVLKVNTLVRPNGTKKA [RPL25]
Second: DVTPISMFGSDQKTGRA [RPN4]
The protein stability index of the first is lower: 2.75 ± 0.087 for the first, 2.93 ± 0.069 for the second.

DYNKKQDRIQDVKLVLA [MED1] and DYTLQDIICEDSTLILE [RPB2] are within error of each other in protein stability index: 2.69 ± 0.078 for the first, 2.83 ± 0.082 for the second.

First: EAEMAYVKAVSDKAQLN [SMC4]
Second: EAIDGNGEIKGENIDAD [SNF2]
The protein stability index of the first is lower: 2.62 ± 0.062 for the first, 3.53 ± 0.14 for the second.

EAKKFEPTYRLVRYGLA [RPS24A] and EANFDLINIDTSIANAF [RPC40] are within error of each other in protein stability index: 2.83 ± 0.14 for the first, 2.78 ± 0.049 for the second.

EASKKSAVKPRPLKLER [FAS1] and ECENEIKTKQMSLKKCQ [SMC2] are within error of each other in protein stability index: 3.1 ± 0.15 for the first, 2.92 ± 0.25 for the second.

First: ECLQAYIFFGPIYYQKL [RET1]
Second: ECPLDPGGYFIVNGTEK [RET1]
The protein stability index of the first is lower: 2.54 ± 0.077 for the first, 3.18 ± 0.12 for the second.

Going from ECPVGEFLINEGTPINN [RPN14] to EDDDIRSRMLPTITLDD [SNF5], the protein stability index falls from 2.99 ± 0.1 to 2.46 ± 0.15.

Compared with EDEDEDDETPSCEVEEI [SNU114], EDEGEELTDEYLAENPD [PRP8] is higher in protein stability index: 3.05 ± 0.051 for the first, 3.43 ± 0.12 for the second.

EDETVKVAQLRQTGPAK [NSL1] and EDFAPLLAEEEELILPN [PRP8] are within error of each other in protein stability index: 3.1 ± 0.16 for the first, 3.14 ± 0.17 for the second.

Going from EDFMDIPKPRTAGKTSV [SNF2] to EDGRTLSDYNIQKESTL [RPS31], the protein stability index rises from 2.67 ± 0.14 to 2.92 ± 0.081.

EDILQGIFNLLNTLFNP [NUT1] and EDIVGALRRRVGPSEQN [REC8] are within error of each other in protein stability index: 2.23 ± 0.052 for the first, 2.28 ± 0.074 for the second.

EDNEMLEDLFSYRNGMA [YJR042W/NUP85] and EDVLVNQILMSVNFFVS [RPL1A] are within error of each other in protein stability index: 2.02 ± 0.082 for the first, 1.91 ± 0.044 for the second.

EDVVAISSRTYGQRAVL [RPS0B] and EDYAIVTKGGTVENPLR [PRP28] are within error of each other in protein stability index: 3.28 ± 0.12 for the first, 3.47 ± 0.16 for the second.

EEAAGTKMFEDRREKAE [SMC2] and EEAGEEEAKEEVTEEQA [RPS0A] are within error of each other in protein stability index: 3.4 ± 0.15 for the first, 3.48 ± 0.12 for the second.

Going from EEEATMTTSAVSPTVGK [YIL149C/MLP2] to EEESLHVFQYANRPRLV [RPC37], the protein stability index falls from 3.25 ± 0.046 to 1.36 ± 0.058.

Compared with EEFAYVDPARRQILFKY [MED6], EEGEFIIDLYSLPEGLL [TAF14] is higher in protein stability index: 2.57 ± 0.085 for the first, 3.4 ± 0.088 for the second.

Going from EEITCALDYLIPPPMPK [MED7] to EEKGWVPVTKLGRLVKA [RPS2], the protein stability index rises from 1.86 ± 0.083 to 3.45 ± 0.086.

EELILPNTKDAMSLYHS [PRP8] and EENSQGNILDFNLNLPP [REC8] are within error of each other in protein stability index: 3.18 ± 0.055 for the first, 3.06 ± 0.11 for the second.

EEQEEEPDREKIKLLTQ [RPC19] and EEQEKINSAPDFTQEDE [ISW2] are within error of each other in protein stability index: 2.93 ± 0.25 for the first, 3.14 ± 0.11 for the second.

First: EETDEVSSESSDEAIIP [SIR3]
Second: EEVMRIALMGQDNKKIY [ESC2]
The protein stability index of the first is higher: 2.93 ± 0.068 for the first, 2.53 ± 0.07 for the second.

Going from EFDRRILKKSLMTSHTK [RTT102] to EFIYLTKVLQFAAKQRQ [SNF2], the protein stability index falls from 2.94 ± 0.17 to 1.33 ± 0.19.

Compared with EFNGFSLYQVDPSGSYF [PRE8], EFTPADPNLSFESSSSL [SSN2] is higher in protein stability index: 2.19 ± 0.057 for the first, 3.05 ± 0.17 for the second.

same assay, conditions: pdr5∆

First: DLVKPKNPKFSNAFYSV [SMC4]
Second: DLWNNFGNIMDNLLEMS [RRP6]
The protein stability index of the first is lower: 2.42 ± 0.064 for the first, 2.88 ± 0.076 for the second.
